Where “and” joins values, the source holds several entries; their conditions need not be identical. Identical values can stand only once.
Target: the molecule itself
Assay: PFO-PAGE

B1: ORF3aΔN-eGFP (N-terminus truncated SARS-CoV-2 ORF3a with C-terminal eGFP) (domain or fragment)
chain: PFGWLIVGVALLAVFQSASKIITLKKRWQLALSKGVHFVCNLLLLFVTVYSHLLLVAAGLEAPFLYLYALVYFLQSINFVRIIMRLWLCWKCRSKNPLLYDANYFLCWHTNCYDYCIPYNSVTSSIVITSGDGTTSPISEHDYQIGGYTEKWESGVKDCVVLHSYFTSDYYQLYSTQLSTDTGVEHVTFFIYNKIVDEPEEHVQIHTIDGSSGVVNPVMEPIYDEPTTTTSVPL
B1 was tested, and the “stoichiometry N” value was 5 and 2 and 3 and 4.
